From a protein production outcome set (Wang et al. 2014)

assay: label from the status in PepcDB records
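Note: failed if final PepcDB status was selected cloned or expressed and not failed if soluble or beyond.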

Sequence	protein production
TIEARTAQSTPSAPPQKVMCVSMGSTTVRVSWVPPPADSRNGVITQYSVAYEAVDGEDRGRHVVDGISREHSSWDLVGLEKWTEYRVWVRAHTDVGPGPESSPVLVRTDEDVPSGPPRKVE	not failed
TIPEGLRAVVFDFDGTILDTETREFHHWQELYREHGRELALSDWQRGVGTWDAFDPWAGLPEQVQADRENVRARLHDTIVSDIAGQDLRPGVRAVLEGVKAAGLRLALATSSDREWVTRWMRQHNLLDLFEAVATRDDVRRVKPDPELYLLAAARLGLRPEECLAVEDSFNGATAAVAAGMRLVVVPNDVTRTQPFPAEWRRLEDGYAGGLAGLL	failed
TISSGVPPELPGPPTNLGISNIGPRSVTLQFRPGYDGKTSISRWLVEAQVGVVGEGEEWLLIHQLSNEPDARSMEVPDLNPFTCYSFRMRQVNIVGTSPPSQPSRKIQTLQ	not failed
TKGEKKQESFLLEYVSANPTGPLHIGHARGAVFGDTLTRLARHLGYKFNTEYYVNDAGNQIYLLGLSILLSVKESILHENVEYPEQYYKGEYIVDLAKEAFEKFGKEFFSEENIPSLADWAKDKMLVLIKQNLEQAKIKIDSYVSERSYYDALNATLESLKEHKGIYEQEGKIWLASSQKGDEKDRVIIREDGRGTYLAADIVYHKDKMSRGYGKCINIWGADHHGYIPRMKAAMEFLGFDSNNLEIILAQMVSLLKDGEPYKMSKRAGNFILMSDVVDEIGSDALRYIFLSKKCDTHLEFDISDLQKEDSSNPVYYINYAHARIHQVFAKAGKKID	failed
TLIYGHRGAKGEAPENTLASFQRCLEHGVNRCELDLHLSRDGELMVIHDPTLKRTTGRRGKVAEHDAATLATYDARKGGPGWVRPTPIPRLEELFEKCPFEHWQLEVKSASRERAARTVTRIRELTERFGNRDKVTVTSGSRTVLKALNELTPELSRGLVAEYAWLDPLKVAQHYGCALLALNWTLCTPERLLKAQRQGLHVSVWTVNEPALMRRLADFGVDSLITDFPGLASATLGNR	failed
TMLRVRSRDGLERVSVDGPHITVSQLKTLIQDQLQIPIHNQTLSTNRNLLLAKSPSDFLAFTDMADPNLRISSLNLAHGSMVYLAYEGERTIRG	not failed
TNDEETIQQQILALSADKRNFLRDPPAGVQFNFDFDQMYPVALVMLQEDELLSKMRFALVPKLVKEEVFWRNYFYRVSLIKQSAQLT	not failed
TNNGKQFIHNDTMEGGKLVCREIYAMNDAASGILNPVKMYKYSYDTDQQKTVKSTYAWNIFKNTWETESRTVISRYETETSVEYSVWNKEKGSFDLSKKYIYITDNNNQLIAQYAYKMNSRTNQWILEKDALTPIYENIYATTR	not failed
TQIQNRTRRAKRALAARGLTEAVTWSFISKPFAEAFGGGQPELALANPIASDLSDMRPSLLPGLIAAAQANADRGSPDLALFEVGQVFKGDRPQDQFMAASGVRRGVASSAGLGRHWSGSAQATALDAKADAFAVLAAAGAPMAGLQIATNKLPAWLHPGRSGAIQIGPQNVLGYFGELHPRVLEQLGADGPLVAFEVILEKIP	not failed
TQVADNEYLVQGRMLIDEFNEVFETDLHMSDVDTMAGYLITALGTIPDEGEKPSFEVGNIKLTAEEMEGTRLLVLRVHFYDEETVDEEPEENRRFFRKEMEDDEPRR	not failed
TSTFYELFPKTFPKKLPIWTIDQSRLRKEYRQLQAQHHPDMAQQGSEQSSTLNQAYHTLKDPLRRSQYMLKLLRNI	failed
TTESLYAFSRKLAGTAALDDVLWATAYQIALMLKVRVVLLLPEQGRIAVKAGYPPEDQLDPADLAAANWAWENDRVAGRGSDTLPGAKRLFLPMRTGRGPIGVIGIDDDRAGALLTPDQRRLLDALTDQGALAIERVHLVEDMDRVKR	failed
TTHKFEHPLNEKTRIYLRVESLLRQAHLASGFADNHQYQLFFRALFDMVEIFEQIQLKSELAKDLEKQRLSYRHWLNVEGVDQEALNSLLNEIDVVHSQLMGAERFGQALKEDRFLSSIRQRFNLPGGSCCFDLPALHYWLHLPIERKKHDANQWQKSLKPLSDALTLWLKLARETGHFKAQIARAGFFQSDADEANILRLHIPMKYGVYPMISGHKNRFAIKFMAFENGQACSQDVEFELAVC	not failed
TVGILWVNWDSHVRYANRAAEEMLGYPAGGVIDRPLIDFEPNLHMDRWLNLWKRARASEEGVQSFETQCVRADGSILPADVSLSFLRFRDSEYLVVYLNDV	failed
TVVNDPSCESVVTTPQHSLRDANSPAGLLSIAEETLAEFLSKATGTAVDWVQMPGMKPGPDSVGIFAISQRCNGVAARACGLVSLEPMKIAEILKDRPSWFRDCRSLEVFTMFPAGNGGTIELVYMQTYAPTTLAPARDFWTLRYTTSLDNGSFVVCERSLSGSGAGPNAASASQFVRAEMLSSGYLIRPCDGGGSIIHIVDHLNLEAWSVPDVLRPLYESSKVVAQKMTISALRYIRQLAQESNGEVVYGLGRQPAVLRTFSQRLSRGFNDAVNGFGDDGWSTMHCDGAEDIIVAINSTKHLTNISNSV	not failed
VAASWREQFIRAEQTHWDAVTETASETYWEGGVLSDVTALAPDPATLFISNSMPIRDMDRFGGPRDADLTVLGNRGASGIDGITSTALGAGSATSDPLVLVTGDLAYYHDMNGLLALGRCAVDATVVLLNNDGGGIFHMLPIEDHPTFEDQFRTPHGLDFEPTEALYSLQFERVADRRQFRERFAESVQTDGTQVIEVRFDAGDSHAVRDQLTE	failed
VDEKALKHITEMGFSKEASRQALMDNGNNLEAALNVLLTSNKQKPVMGPP	not failed
VDICNHALLVGYGRVGSLLGEKLLASDIPLVVIETSRTRVDELRERGVRAVLGNAANEEIMQLAHLECAKWLILTIPNGYEAGEIVASARAKNPDIEIIARAHYDDEVAYITERGANQVVMGEREIARTMLELLETPPAGEVVTR	not failed

Sequence	protein production
VDKVDSREEKITEKFDEPATYIEDAEQLEGEETLVTPGTQGERTVTRKIVTVNGVETANEVVNEEIITPGVAATIKRGAKK	failed
VDQLFFSTTDAQGRIQETNNTFVELSRYTEEELRNAAHNIIRHPFMPGGVFKIMWDKLQRGETFAGYVRNLAHSGETYDVFATVTPIPGTHD	failed
VDRDYLQSEYGVLKAGQCYKVVRSFRDYRNINYERGDVMRFLGSNFVPYESGLSLFFDKNGSERQIMLCVRPEFQMEIAHHLDSYFCKLDDN	not failed
VDWTDAERSAIVGLWGKISVDEIGPQALARLLIVSPWTQRHFSTFGNLSTPAAIMGNPAVAKHGKTVMHGLDRAVQNLDDIKNTYATLSVMHSEKLHVDPDNFRLLADCITVCVAAKLGPAVFSADTQEAFQKFLAVVVSALGRQYH	not failed
VELLQVDADLQAEIVGKYNADLQKAVQIEEKKAREIATEAVKEHVTAEYEERYAEHEEHDRIMRDVAEILEQMEHAEVRRLITEDKVRPD	not failed
VFGVKEWECEVLSNKNVSTFIKEFVVKLPEGETMNFKSGSYAQIKIPKYNIRYADYDIQDRFRGDWDKMDAWSLTCKNEEETVRAYSMANYPAEGNIITLNVRIATPPFDRAANKWKAGIKPGISSSYIFSLKPGDKVMMSGPYGDFHIQDTDAEMLYIGGGAGMAPLRAQILHLFRTLKTGRKVSYWYGARSKNEIFYEEDFREIEREFPNFKFHIALSDPQPEDNWTGYVGFIHQVIYDNYLKDHDAPEDIEYYMCGPGPMANAVKGMLENLGVPRNMLFFDDFG	not failed
VGFAPELYCGLENCYDVLEVNREEFDKQKLAKAYRALARKHHPDRVKNKEEKLLAEERFRVIATAYETLKDDEAKTNYDYYLDHPDQRFYNYYQY	not failed
VGFLMFGNLLRECGVLDRLSQTAQNELVNIISILLGLTISIKMQADLFLNVQTL	failed
VGGFTWDLSANLSSVANKIISLPYNGIENNRVGGYEVAVGKGTNATKWIAGRQEGGKLGEMVAYKQNHIFKSWDDVKEHANMMIDEVANLYGPGLASEYAGKEGWKPIEPGDVCWEDINGDNKINGLDREVVGNIFPKVTGGFSSTLSWKGISLYARFDYALGHTLYNDLAARTLGQYQGAFNIITEVKDMWSEDNPNSDLPAFYYADQLAKKNITRSNNASASRHNNSSRLYEKADYLALRELTLSWDLPKAWTSKAFIQNASVYVTGQNLFYVTGYTGTSPEPVLTNSDNNENLYGVDQGRYPTPRTVLFGLSVTF	failed
VGKEKAEVELLQVDVDLQADIVAKYNAQLQKAVQVEEKKAREAATEAVKEMVKAEYEERYAEDENLATIMRDVAEILEQMEHAEVRRLITEDKIRPDGRKIDEIRP	failed
VHVLIRPLQAQDREREKAFIERLSPESRHFRFLCQLREPGEAMLDQLMKVDQDRQAAYVALAHVDGELQEVGISRYATASGKDECECAVTVMDSWQHHGLGRLLLKHLIDHARAKGLRQMYSVDAAANQAMRELAKAAGFTT	failed
VKDVRKIQFMPMERHNTELLSLVDNLPDPVFAIDLKGAVDMANMSALSLLGLHKQEVIGTQIGALLPSVRFSRWSEGVNARTRENLVIDGLDYILELMPVY	failed
VKRFWENVGKPNDTTDGRGTTSLAMTPISQTPGLLAEAMVDLGAIEHNVRVLREHAGHAQLMAVVKADGYGHGATRVAQTALGAGAAELGVATVDEALALRADGITAPVLAWLHPPGIDFGPALLADVQVAVSSLRQLDELLHAVRRTGRTATVTVKVDTGLNRNGVGPAQFPAMLTALRQAMAEDAVRLRGLMSHMVYADKPDDSINDVQAQRFTAFLAQAREQGVRFEVAHLSNSSATMARPDLTFDLVRPGIAVYGLSPVPALGDMGLVPAMTVKCAVALVKSIRAGEGVSYGHTWIAPRDTNLALLPIGYADGVFRSLGGRLEVLINGRRCPGVGRICMDQFMVDLGPGPLDVAEGDEAILFGPGIRGEPTAQDWADLVGTIHYEVVTSPRGRITRTYREAENR	not failed
VKRKGVEVIIALDISNSMLAQDVQPSRLEKAKRLISRLVDELDNDKVGMIVFAGDAFTQLPITSDYISAKMFLESISPSLISKQGTAIGEAINLATRSFTPQEGVGRAIIVITDGENHEGGAVEAAKAAAEKGIQVSVLGVGMPEGAPIPVEGTNDYRRDREGNVIVTRLNEGMCQEIAKDGKGIYVRVDNSNSAQKAISQEISKMAKSDVE	not failed
VLAPVVPGKALEFPQDFGAHNDFRIEWWYVTGWLETPTGKPLGFQITFFRTATEIDRDNPSHFAPDQLIIAHVALSDPAIGKLQHDQKIARAGFDLAYARTGNTDVKLDDWIFVRETDGRYRTRIEAEDFTLTFILTPSQPLMLQGENGFSRKGPGAPQASYYYSEPHLQVSGIINRQGEDIPVTGTAWLDREWSSEYLDPNAAGWDWISANLDDGSALMAFQIRGKDDSKIWAYAALRDASGHTRLFTPDQVSFHPIRTWRSARTQAVYPVATRVLTGETEWQITPLMDDQELDSRASAGAVYWEGAVTFTRDGQPAGRGYMELTGYVRPLSM	not failed
VPGILMCEIFIRANQRSYSVQARSLRLHGVATSVRLEQLFWDVLEEIAARDGMRVTQLIERLYDELVQYRGEAANFTSFLRVCCLRYQVLQAEGRIPADATVPIRSLDAQAVLRGLPANLYDSR	not failed
VPKIVDHDERRRALADAVLALIAREGISAVTTRAVAEESGWSTGVLNHYFGSRHELLLAALRRAGDIQGDRYRTILDEEGAGPIEKLRNITASILPLDERRLAMTRVFLFFYAEGAAEETARGEIAAFLARWRGVVRESVVAAQREGTVSTDLDADAVTVALVALTDGLALQAILDPVVMKAISAEDAAARCVDAAVRRTTEEAGAVGR	not failed
VQFSLLHSKFHLCSVATRALLLSTYIKFINLFPETKATIQGVLRAGSQLRNADVELQQRAVEYLTLSSVASTDVLATVLEEMPPFPERESSILAKLKRKKGPGAGSALDDGRRDPSSNDINGGME	failed
